Data as given in CN106117358A (UNIV SUN YAT SEN, dated 2016).

Columns and labels:
CD3 on Jurkat cells [1] = biological target: CD3 on Jurkat cells (UniProt P07766); test: flow cytometry, culture supernatant on Jurkat cells (negative control)
CD3-His蛋白(MP-5) = biological target: T1, CD3-His蛋白(MP-5) (UniProt P07766 23-126); test: BLI (Octet RED96), off-rate screening; sdAb-SASA from expression medium captured on BSA-coated biosensor, 100 nM CD3 in solution, 1:1 Langmuir fit, 30°C
T1 construct: Immunogen and panning antigen; the construct is not defined; also called CD3蛋白; not shown: His tag

CD3 on Jurkat cells [2] = biological target: CD3 on Jurkat cells (UniProt P07766); test: flow cytometry, culture supernatant on Jurkat cells

T1 sequence (P07766 23-126): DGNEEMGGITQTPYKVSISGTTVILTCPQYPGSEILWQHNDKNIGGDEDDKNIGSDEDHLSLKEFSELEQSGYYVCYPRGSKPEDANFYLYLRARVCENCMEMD

Row | Molecule | MFI (CD3 on Jurkat cells [1]) | koff (CD3-His蛋白(MP-5)) | MFI (CD3 on Jurkat cells [2])
1 | NC-sdAb (VHH) | 115 |  | 
2 | A30228 (VHH, Llama sdAb from a phage display library; Tested as sdAb-SASA protein in E. coli expression medium / culture supernatant (FASEBA format), not purified; 1; also called 抗CD3单域抗体; sdAb; not shown: SASA fusion partner of the pFASEBA vector (sdAb-SASA protein)) VHH: QVKLEESGGGLVQAGDSLTLSCAASGRTFDTMGWFRQAPGKEREFVAAVRWSSGNTYYGNTVKGRFTISRDTATNTVYLEMNSLKHEDTAVYYCAARLAGRGAADHWGQGTQVTVSS |  | 7.61e-05 s⁻¹ | 240
3 | A30311 (VHH, Llama sdAb from a phage display library; Tested as sdAb-SASA protein in E. coli expression medium / culture supernatant (FASEBA format), not purified; 3; also called 抗CD3单域抗体; sdAb; not shown: SASA fusion partner of the pFASEBA vector (sdAb-SASA protein)) VHH: QVKLEESGGGLVQAGGSLRLSCAASGRTFDTMGWFRQAPGKEREFVAAVRWSSGNTYYGNTVKGRFTISRDTATNTVYLQMNSLKHEDTAVYYCAARLGGRGAADHWGQGTQVTVSS |  | 0.000153 s⁻¹ | 299
